Bridges are numbered along the chain shown (N, C = ends). Primed or numbered codes have the meaning given here. Where no end group is shown, it is not given here. [ ]: non-standard residue; d: D form. The star is where a group is joined. S5′ = (S)-2-(4'-pentenyl)alanine, olefinic stapling residue closed by ring-closing metathesis; NMeR′ = N-methylarginine (methylation site not shown in the text); 2Nal = N[C@@H](Cc1ccc2ccccc2c1)C(=O)O; pentenylAla = 2-(4'-pentenyl)alanine; NMeR = CN[C@@H](CCCNC(=N)N)C(=O)O; Ala(cPr) = N[C@@H](CC1CC1)C(=O)O; NMeT = CN[C@H](C(=O)O)[C@@H](C)O; hArg = N=C(N)NCCCC[C@H](N)C(=O)O; NMeQ = CN[C@@H](CCC(N)=O)C(=O)O; dNMeQ = CN[C@H](CCC(N)=O)C(=O)O; Cha = N[C@@H](CC1CCCCC1)C(=O)O; NMeL = CN[C@@H](CC(C)C)C(=O)O; αMeL = CC(C)C[C@](C)(N)C(=O)O; Cba = N[C@@H](CC1CCC1)C(=O)O; S5 = C=CCCC[C@](C)(N)C(=O)O; Nle = CCCC[C@H](N)C(=O)O; Abu = CC[C@H](N)C(=O)O; Hexanoyl = CCCCCC(=O)*; Propionyl = CCC(=O)*; βAla = NCCC(=O)O
T1: β-catenin (UniProt P35222 1-781, limits assumed)
T1 construct: also called beta-catenin
T1 sequence (looked up): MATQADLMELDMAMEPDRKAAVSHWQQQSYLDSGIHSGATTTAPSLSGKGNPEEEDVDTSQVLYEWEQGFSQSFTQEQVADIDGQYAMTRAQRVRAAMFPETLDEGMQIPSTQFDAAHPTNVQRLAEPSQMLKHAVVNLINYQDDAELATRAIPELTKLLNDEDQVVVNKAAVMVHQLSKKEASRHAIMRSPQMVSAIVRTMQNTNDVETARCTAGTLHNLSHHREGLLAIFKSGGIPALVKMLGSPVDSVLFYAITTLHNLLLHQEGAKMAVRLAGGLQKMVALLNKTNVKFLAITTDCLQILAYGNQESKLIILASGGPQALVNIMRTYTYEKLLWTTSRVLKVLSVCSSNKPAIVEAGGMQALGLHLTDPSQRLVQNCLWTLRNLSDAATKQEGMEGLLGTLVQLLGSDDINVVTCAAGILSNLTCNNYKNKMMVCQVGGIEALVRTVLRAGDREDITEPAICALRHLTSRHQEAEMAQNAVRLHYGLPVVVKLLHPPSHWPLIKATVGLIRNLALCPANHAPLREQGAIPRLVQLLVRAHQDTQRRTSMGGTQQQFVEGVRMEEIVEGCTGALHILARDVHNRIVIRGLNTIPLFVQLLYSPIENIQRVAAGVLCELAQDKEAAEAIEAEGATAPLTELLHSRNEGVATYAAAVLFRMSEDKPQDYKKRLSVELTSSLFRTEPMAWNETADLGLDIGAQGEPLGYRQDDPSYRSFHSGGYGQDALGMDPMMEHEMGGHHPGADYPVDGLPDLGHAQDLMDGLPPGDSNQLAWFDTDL

B1: SEQ ID NO: 136 (peptide)
peptide: Hexanoyl-L[NMeQ]TLR[S5]IQR[S5][Cba][2Nal]-NH2
modifications: staple 6-10; also: N-methyl-Gln at 2: filing says both D and L
B2: SEQ ID NO: 116 (peptide)
peptide: L[dNMeQ]TLR[S5]I[dNMeQ]R[S5][Cba][2Nal]
modifications: staple 6-10; not fully specified (N-terminus, C-terminus); printed as L(N-methylQ)TLRXI(N-methylQ)RX(CBA)(2-Nal), X/X stapled, (S) α-methyl, N-terminal Ac, C-terminal NH2
B3: SEQ ID NO: 121 (peptide)
peptide: Ac-LQ[NMeT]LR[S5]IQR[S5][Cba][2Nal]-NH2
modifications: staple 6-10; not fully specified (residue 2); printed as L(N-methylQ)(N-methylT)LRXIQRX(CBA)(2-Nal)
B4: SEQ ID NO: 117 (peptide)
peptide: Ac-LQTL[NMeR][S5]IQR[S5][Cba][2Nal]-NH2
modifications: staple 6-10; not fully specified (residue 2)
B5: SEQ ID NO: 89 (peptide)
peptide: R[pentenylAla][Ala(cPr)][dNMeQ][pentenylAla][Ala(cPr)]R[pentenylAla]IQR[pentenylAla][Ala(cPr)][2Nal][βAla][βAla]
modifications: staple 8-12, 2-5
B6: SEQ ID NO: 132 (peptide)
peptide: Ac-L[NMeQ]TL[hArg][S5]IQR[S5][Cba][2Nal]-NH2
modifications: staple 6-10; not fully specified; printed as L(N-methylQ)TL(homoR)XIQRX(CBA)(2-Nal)
B7: SEQ ID NO: 4 (peptide)
peptide: Ac-RSLQTLR[S5]IQR[S5]L[2Nal]-NH2
modifications: staple 8-12; not fully specified; printed as RSLQTLRXIQRXL(2-Nal)
B8: SEQ ID NO: 118 (peptide)
peptide: Ac-[NMeL]QTLR[S5]IQR[S5][Cba][2Nal]-NH2
modifications: staple 6-10; not fully specified (residue 2); printed as (Me-L)(N-MeQ)TLRXIQRX(CBA)(2-Nal)
B9: SEQ ID NO: 126 (peptide)
peptide: Ac-L[NMeQ]T[αMeL]R[S5]IQR[S5][Cba][2Nal]-NH2
modifications: staple 6-10; not fully specified; printed as L(N-methylQ)T(α-methylL)RXIQRX(CBA)(2-Nal)
B10: SEQ ID NO: 119 (peptide)
peptide: Ac-LQTLR[S5]IQR[S5][Ala(cPr)][2Nal]-NH2
modifications: staple 6-10; not fully specified (residue 2); printed as LN(Me-Gln)TLRXIQRX(Cpa)(2-Nal)
B11: SEQ ID NO: 80 (peptide)
peptide: Ac-HRE[S5′]SLQ[S5′]LR[Nle]IQR[Nle]L[2Nal]-OH
modifications: staple 4-8
B12: SEQ ID NO: 81 (peptide)
peptide: Ac-HRE[S5′]SLQ[S5′]LR[Nle]IQR[Nle][Cba][2Nal]-OH
modifications: staple 4-8
B13: SEQ ID NO: 135 (peptide)
peptide: Propionyl-L[NMeQ]TLR[S5]IQR[S5][Cba][2Nal]-NH2
modifications: staple 6-10; also: N-methyl-Gln at 2: filing says both D and L
B14: SEQ ID NO: 120 (peptide)
peptide: HOCH2CH2CO-LQTLR[S5]IQR[S5][Cba][2Nal]-NH2
modifications: staple 6-10; not fully specified (residue 2); printed as L(N-methylQ)TLRXIQRX(CBA)(2-Nal)
B15: SEQ ID NO: 32 (peptide)
peptide: Ac-LQTLR[S5]IQR[S5]L[2Nal]PD-NH2
modifications: staple 6-10; not fully specified; printed as LQTLRXIQRXL(2-Nal)PD
B16: SEQ ID NO: 128 (peptide)
peptide: Ac-LQTL[NMeR′][S5]IQ[NMeR′][S5][Cba][2Nal]-NH2
modifications: staple 6-10; not fully specified (residue 2); printed as L(N-methylQ)TL(N-methylR)XIQ(N-methylR)X(CBA)(2-Nal)
B17: SEQ ID NO: 125 (peptide)
peptide: Ac-L[NMeQ]TLR[S5]IQ[NMeR′][S5][Cba][2Nal]-NH2
modifications: staple 6-10; not fully specified; printed as L(N-methylQ)TLRXIQ(N-methylR)X(CBA)(2-Nal)
B18: SEQ ID NO: 52 (peptide)
peptide: LQTLR[Nle]IQR[Nle]L[2Nal]
B19: SEQ ID NO: 78 (peptide)
peptide: Ac-QLEHRERSL[S5]TLR[S5]IQR[Abu]L[2Nal][βAla][βAla]-NH2
modifications: staple 10-14
B20: SEQ ID NO: 64 (peptide)
peptide: EHRERSLQTLR[Nle]IQR[Nle]L[2Nal]
B21: SEQ ID NO: 65 (peptide)
peptide: QLEHRERSLQTLRDIQRML[2Nal]
B22: SEQ ID NO: 67 (peptide)
peptide: QLEHRERSL[Nle]TLR[Nle]IQRML[2Nal]
B23: SEQ ID NO: 66 (peptide)
peptide: QLEHRERSLQTLR[Nle]IQR[Nle]L[2Nal]
B24: SEQ ID NO: 33 (peptide)
peptide: Ac-LQTLR[S5]IQR[S5]L[2Nal]P-NH2
modifications: staple 6-10; not fully specified; printed as LQTLRXIQRXL(2-Nal)P
B25: SEQ ID NO: 133 (peptide)
peptide: Ac-L[NMeQ]TLR[S5]IQ[hArg][S5][Cba][2Nal]-NH2
modifications: staple 6-10; also: N-methyl-Gln at 2: filing says both D and L
B26: SEQ ID NO: 127 (peptide)
peptide: Ac-LQTLR[S5]IQR[S5][Cha][2Nal]-NH2
modifications: staple 6-10
SMILES: CC[C@H](C)[C@@H]1NC(=O)[C@@](C)(NC(=O)[C@H](CCCNC(=N)N)NC(=O)[C@H](CC(C)C)NC(=O)[C@@H](NC(=O)[C@H](CCC(N)=O)NC(=O)[C@H](CC(C)C)NC(C)=O)[C@@H](C)O)CCCC=CCCC[C@@](C)(C(=O)N[C@@H](CC2CCCCC2)C(=O)N[C@@H](Cc2ccc3ccccc3c2)C(N)=O)NC(=O)[C@H](CCCNC(=N)N)NC(=O)[C@H](CCC(N)=O)NC1=O
B27: SEQ ID NO: 124 (peptide)
peptide: Ac-L[NMeQ]TL[NMeR′][S5]IQR[S5][Cba][2Nal]-NH2
modifications: staple 6-10; not fully specified; printed as L(N-methylQ)TL(N-methylR)XIQRX(CBA)(2-Nal)
B28: SEQ ID NO: 107 (peptide)
peptide: Ac-LQTLR[S5]IQR[S5][Cba][2Nal]-NH2
modifications: staple 6-10
B29: SEQ ID NO: 82 (peptide)
peptide: H-HRE[S5′]SLQ[S5′]LR[S5′]IQR[S5′][Cba][2Nal]-OH
modifications: staple 11-15, 4-8
B30: SEQ ID NO: 83 (peptide)
peptide: Ac-HRE[S5′]SLQ[S5′]LR[S5′]IQQ[S5′][Cba][2Nal]-OH
modifications: staple 11-15, 4-8
B31: SEQ ID NO: 87 (peptide)
peptide: Ac-HRQ[S5′]SLQ[S5′]LR[S5′]IQR[S5′][Cba][2Nal]-NH2
modifications: staple 11-15, 4-8
B32: SEQ ID NO: 94 (peptide)
peptide: Ac-HR[S5′]RSL[S5′]TLR[S5′]IQR[S5′][Cba][2Nal]-NH2
modifications: staple 11-15, 3-7
B33: SEQ ID NO: 51 (peptide)
peptide: LQTLRDIQRML[2Nal]
B34: SEQ ID NO: 50 (peptide)
peptide: LR[Nle]IQR[Nle]L[2Nal]
B35: SEQ ID NO: 122 (peptide)
peptide: Ac-LQTLR[S5]IQR[S5][Cha][2Nal]-NH2
modifications: staple 6-10; not fully specified (residue 2); printed as L(N-methylQ)TLRXIQRX(Cha)(2-Nal)

Molecular target: T1, β-catenin
Experiment: ALPHA Screen (BCL9/β-catenin);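 further: bead proximity readout with the polypeptide linked to donor beads and β-catenin fixed on acceptor beads, their binding bringing the beads close enough to emit signal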
Text: In this assay, a polypeptide is conjugated to a donor bead and its target protein (i.e., β-catenin) is attached to an acceptor bead. When the two beads are in proximity due to the binding of the polypeptide to the target protein, a signal is generated and the binding affinity of the polypeptide can be quantitatively calculated. The assay may be conducted in the presence or absence of an unconjugated control polypeptide.

Q: Which IC50 does the source give for B1 here?
A: 3.52 µM

Q: For B2, which IC50 is on record?
A: 26.9 µM

Q: Which IC50 does the source give for B3 here?
A: 5.01 µM

Q: With B4 as the binder, how does the IC50 read?
A: 4.23 µM

Q: Which IC50 does the source give for B5 here?
A: 2.46 µM

Q: B6 was tested. Which IC50 did it give?
A: 11.2 µM

Q: How did the IC50 turn out when B7 was run?
A: 1.91 µM

Q: With B8 as the binder, how does the IC50 read?
A: 6.33 µM

Q: For B9, which IC50 is on record?
A: 7.43 µM

Q: How did the IC50 turn out when B10 was run?
A: 15.8 µM

Q: For B11, which IC50 is on record?
A: 5.33 µM

Q: Which IC50 does the source give for B12 here?
A: 45.5 µM

Q: With B13 as the binder, how does the IC50 read?
A: 8.54 µM

Q: B14 was tested. Which IC50 did it give?
A: 5.44 µM

Q: How did the IC50 turn out when B15 was run?
A: 12.2 µM

Q: Which IC50 does the source give for B16 here?
A: 29.5 µM

Q: How did the IC50 turn out when B17 was run?
A: 10.6 µM

Q: With B18 as the binder, how does the IC50 read?
A: 4.7 µM

Q: How did the IC50 turn out when B19 was run?
A: 0.09 µM

Q: Which IC50 does the source give for B20 here?
A: 1.73 µM

Q: B21 was tested. Which IC50 did it give?
A: 1.64 µM

Q: For B22, which IC50 is on record?
A: 1.08 µM

Q: How did the IC50 turn out when B23 was run?
A: 0.73 µM

Q: For B24, which IC50 is on record?
A: 11.8 µM

Q: How did the IC50 turn out when B25 was run?
A: 9.2 µM

Q: B26 was tested. Which IC50 did it give?
A: 10.1 µM

Q: Which IC50 does the source give for B27 here?
A: 2.74 µM

Q: For B28, which IC50 is on record?
A: 0.316 µM

Q: For B29, which IC50 is on record?
A: 1.01 µM

Q: B30 was tested. Which IC50 did it give?
A: 50 µM

Q: How did the IC50 turn out when B31 was run?
A: 2.66 µM

Q: B32 was tested. Which IC50 did it give?
A: 0.175 µM

Q: How did the IC50 turn out when B33 was run?
A: 5.78 µM

Q: With B34 as the binder, how does the IC50 read?
A: 2.54 µM

Q: Which IC50 does the source give for B35 here?
A: 7.17 µM

Source: patent publication US20200262867A1 (WNTRX PHARMACEUTICALS, published 2020)
